From patent US20190225670A1, “COMPOUNDS AND METHODS FOR ACTIVATING TIE2 SIGNALING” (ASCLEPIX THERAPEUTICS, LLC, priority 2016, published 2019)

Assays:
[1] = tested on: MEC monolayers; assay: FITC Transwell permeability assay; type: cell-based, human; conditions: each agent alone
Experimental: The integrity of these junctions is also important for the regulation of monolayer permeability by controlling the size of intercellular openings. The effect of the AXT107 on EC permeability was further investigated by the transendothelial diffusion of FITC-labeled dextran across MEC monolayers seeded onto permeable Transwell® substrates.
Transwell, twenty-four-well inserts (Corning) were coated with 7.5 μg/cm^2 FN1 for two hours at 37° C., aspirated, and then dried for thirty minutes at room temperature. Wells were then seeded with 7.5×10^4 MECs in 100 μl of EBM-2 media (without phenol red) and allowed to settle for thirty minutes at room temperature. 1 ml of EGM-2 media was then added to the bottom chamber and an additional 200 μl to the top chamber. The plate was incubated for twenty-four hours at 37° C. after which the media was aspirated and an additional 7.5×10^4 MECs were plated in each well as described above. After forty-eight hours at 37° C., the media was aspirated from both chambers and the cells were washed twice in dPBS containing Ca^2+ and Mg^2+, once with EBM-2 media (without phenol red) and serum starved in EBM-2 media applied to both chambers for two hours at 37° C. After this incubation, 100 μM AXT107 or an equivalent amount of DMSO vehicle was added and incubated for an additional ninety minutes. In the top chamber, the cells were then treated with 200 ng/ml Ang2, 100 ng/ml VEGFA, both, or PBS control and in the bottom chamber, the cells were then treated with 25 μg/ml FITC-Dextran (40 kDa MW). AXT107 was also added in both chambers to maintain a concentration of 100 μM. After three hours, 10 μl was removed from the top chamber of each well and mixed with 90 μl of water in a clear bottom, 96-well plate. Fluorescence values for each sample were calculated using a Perkin Elmer plate reader.

[2] = tested on: Tie2; assay: Western blot of phospho-Tie2 (Y992) in MEC monolayers treated with AXT107 and angiopoietin; type: cell-based, human; conditions: ligand alone, no AXT107
Experimental: A confluent monolayer of human microvascular endothelial cells (HMEC) was serum starved with EBM-2 overnight. After a 90 min treatment with AXT107 at concentrations of 0, 10, 32, and 100 μM, the cells were treated for 15 min with 1 mM sodium orthovanadate. Next the cells were treated with Angiopoietin-2 (Ang-2) at 200 ng/mL for 15 min. Following cell lysis, the lysates were immunoblotted for pTie2 (Y992), pSTAT3 (Y705), and pAkt (S473).
To investigate the effects of the integrin inhibitor AXT107 on Tie2 signaling, confluent monolayers of microvascular endothelial cells (MECs) on fibronectin-coated dishes were treated with various concentrations of AXT107 followed by exposure to the Tie2 ligands Ang1 or Ang2.
For Ang1/2 signaling investigations, cell culture dishes (10 cm diameter) were coated with 5 μg/ml fibronectin (FN1; Sigma-Aldrich, St. Louis, Mo.) for two hours at 37° C. The FN1 solution was then removed by aspiration and 5×10^6 microvascular endothelial cells (MECs; Lonza, Walkersville, Md.) were plated in EGM-2MV media (Lonza) and cultured for forty-eight hours at 37° C. The cells were then serum starved for sixteen hours in serum-free EGM-2 base media (Lonza). AXT107 (0-100 μM, as indicated) was subsequently added to each culture and incubated for seventy-five minutes at 37° C. The cultures were then treated with 1 mM sodium vanadate (New England Biolabs, Ipswich, Mass.) for fifteen minutes to enhance the phospho-Tie2 signal followed by stimulation with 200 ng/ml angiopoietin (R&D Systems, Minneapolis, Minn.) for an additional fifteen minutes. The cells were then transferred to ice, washed twice with ice cold Dulbecco's phosphate-buffered saline (dPBS) containing Ca^2+ and Mg^2+, and collected by scraping in 500 μl of 1×Blue Loading Buffer (Cell Signaling, Danvers, Mass.). Lysate samples were then sonicated, boiled, and resolved by SDS-PAGE. Specific proteins were identified by Western blot, using the following primary antibodies: Cell Signaling—phospho-Tie2 (Y992) (Cat#: 4221), Tie2 (Cat#: 7403), phospho-Stat3 (Y705) (Cat#: 4113), Stat3 (Cat#: 4904), phospho-Akt (S473) (Cat#: 4058), Akt (Cat#: 9272), phospho-p44/42 MAPK (T202/Y204) (Cat#: 4370), p44/42 MAPK (Cat#: 4695); BD Transduction Laboratories—β1 integrin (Cat#: 610467); Millipore—α5 integrin (Cat#: AB1928) and detected with HRP-conjugated goat anti-rabbit and sheep anti-mouse secondary antibodies (GE healthcare).

Row | Molecule | FITC-dextran diffusion across the monolayer, single treatment [1] | Tie2 phosphorylation by ligand alone [2]
1 | VEGF | appeared to increase permeability (although non-significantly) | 
2 | Ang2: Tie2 ligand; endogenous Tie2 antagonist and weak agonist (protein) YNNFRKSMDSIGKKQYQVQHGSCSYTFLLPEMDNCRSSSSPYVSNAVQRDAPLEYDDSVQRLQVLENIMENNTQWLMKLENYIQDNMKKEMVEIQQNAVQNQTAVMIEIGTNLLNQTAEQTRKLTDVEAQVLNQTTRLELQLLEHSLSTNKLEKQILDQTSEINKLQDKNSFLEKKVLAMEDKHIIQLQSIKEEKDQLQVLVSKQNSIIEELEKKIVTATVNNSVLQKQQHDLMETVNNLLTMMSTSNSAKDPTVAKEEQISFRDCAEVFKSGHTTNGIYTLTFPNSTEEIKAYCDMEAGGGGWTIIQRREDGSVDFQRTWKEYKVGFGNPSGEYWLGNEFVSQLTNQQRYVLKIHLKDWEGNEAYSLYEHFYLSSEELNYRIHLKGLTGTAGKISSISQPGNDFSTKDGDNDKCICKCSQMLTGGWWFDACGPSNLNGMYYPQRQNTNKFNGIKWYYWKGSGYSLKATTMMIRPADF | influenced FITC-dextran diffusion across the monolayer | insignificant effects
3 | Ang1: Tie2 ligand; binds Tie2 and stimulates phosphorylation and downstream signaling (protein) SNQRRSPENSGRRYNRIQHGQCAYTFILPEHDGNCRESTTDQYNTNALQRDAPHVEPDFSSQKLQHLEHVMENYTQWLQKLENYIVENMKSEMAQIQQNAVQNHTATMLEIGTSLLSQTAEQTRKLTDVETQVLNQTSRLEIQLLENSLSTYKLEKQLLQQTNEILKIHEKNSLLEHKILEMEGKHKEELDTLKEEKENLQGLVTRQTYIIQELEKQLNRATTNNSVLQKQQLELMDTVHNLVNLCTKEGVLLKGGKREEEKPFRDCADVYQAGFNKSGIYTIYINNMPEPKKVFCNMDVNGGGWTVIQHREDGSLDFQRGWKEYKMGFGNPSGEYWLGNEFIFAITSQRQYMLRIELMDWEGNRAYSQYDRFHIGNEKQNYRLYLKGHTGTAGKQSSLILHGADFSTKDADNDNCMCKCALMLTGGWWFDACGPSNLNGMFYTAGQNHGKLNGIKWHYFKGPSYSLRSTTMMIRPLDF |  | induced phosphorylation
